The source of these data is patent US20160193316A1 (priority 1994, published 2016).

Where two headings read alike, the source gives them in different places.

The target of test [1] is T1, HLA-B*0702 (Homo sapiens, UniProt P01889).
T1 construct: endogenous in cells; host or cells: GM3107
The test is described as follows: HLA class I peptide binding assay. The note with it: Malaria B07 super motif peptides; binding value, no unit.

Test [2] has as its target HLA-A*0201 (Homo sapiens, UniProt P04439, D140Y/D185E/D98H/E176V/E277Q/G131W/G231S/I119V/I121R/I166T/I218V/L300P/L318F/N151K/N90K/P208A/P217A/Q86G/Q94H/R138H/R169H/T345S). The test is described as follows: HLA class I peptide binding assay. The note with it: Malaria A02 motif peptides, Table VIII; unit not given.
Test [3] deals with T2, DRB1*0101 (DR1) (Homo sapiens, UniProt P01903+P01911, A100R/D57E/F55L/F60I/F76Y/I96L/L162R/M171V/P40L/Q125E/R42F/V115G/Y59C).
T2 construct: endogenous in cells; host or cells: LG2
The test is described as follows: HLA class II peptide binding assay. Particulars: Table XIXb, Malaria Super Motif Peptides With Binding Data; DR1.

The target in test [4] is T3, DRB1*0301 (DR3) (Homo sapiens, UniProt P01903+P01911, A100K/A102G/A103R/A169T/F55Y/I96L/K41T/L162R/M171V/P40S/Q125H/Q178H/Q39Y/R42S/S66N/T106N/T262R/W38E/Y61H).
T3 construct: endogenous in cells; host or cells: MAT
The test is described as follows: HLA class II peptide binding assay (pH 4.5). Particulars: for DR3 binding data: Table XIXb.

Test [5] addresses T4, DRB1*0401 (DR4w4) (Homo sapiens, UniProt P01903+P01911, A100K/A169T/F76Y/I96L/K127E/L162R/M171V/N62H/P40V/Q125Y/R42H/S133A/S149N/S66Y/V115G/V209L/W38E).
T4 construct: endogenous in cells; host or cells: Preiss
The test is described as follows: HLA class II peptide binding assay. Particulars: Table XIXb; DR4w4.

Test [6] addresses T5, DRB1*0405 (DR4w15) (Homo sapiens, UniProt P01903+P01911, A100R/A169T/D86S/F76Y/I96L/K127E/L162R/M171V/N62H/P40V/Q125Y/R42H/S133A/S149N/S66Y/V115G/V209L/W38E).
T5 construct: endogenous in cells; host or cells: KT3
The test is described as follows: HLA class II peptide binding assay. Particulars: Table XIXb; DR4w15.

The target in test [7] is T6, DRB1*0701 (DR7) (Homo sapiens, UniProt P01903+P01911, A100R/A102G/A103Q/D57E/D86V/E43K/F76Y/K127E/L162R/M171V/P40G/Q125H/Q99D/R33Q/R42Y/R54Q/S133A/S66F/T210M/V115G/Y107V/Y59L/Y89S).
T6 construct: endogenous in cells; host or cells: Pitout
The test is described as follows: biochemical. The class given is binding.

Test [8] addresses T7, DRB1*0802 (DR8w2) (Homo sapiens, UniProt P01903+P01911, A100R/A103L/A169T/F76Y/H45Y/I96F/K41T/L162R/M171V/P40S/Q125H/Q178H/Q39Y/Q99D/R218S/R42G/S66Y/V115G/W38E).
T7 construct: endogenous in cells; host or cells: OLL
The test is described as follows: biochemical. Type of test: binding.

Test [9] deals with T8, DRB1*0901 (DR9) (Homo sapiens, UniProt P01903+P01911, A100R/A103E/D57H/D86V/F55Y/F60I/F76Y/I96F/K127E/L162R/M171V/P40D/Q125H/Q99R/R33Q/R42F/S133A/S66N/T210M/V115G/W38K/Y107V/Y59G/Y89S).
T8 construct: endogenous in cells; host or cells: HID
The test is described as follows: biochemical. Type of test: binding.

Test [10] addresses T9, DRB1*1101 (DR5w11) (Homo sapiens, UniProt P01903+P01911, A100R/A169T/A87E/I96F/K41T/L162R/M171V/P40S/Q125H/Q178H/Q39Y/Q99D/R42S/S66Y/T262R/V115G/W38E).
T9 construct: endogenous in cells; host or cells: Sweig
The test is described as follows: biochemical. The class given is binding.

Test [11] addresses T10, DRB1*1201 (DR5w12) (Homo sapiens, UniProt P01903+P01911, A100R/A169T/D57E/D86V/F55L/H45Y/K41T/L162R/M171V/P40S/Q125H/Q178H/Q39Y/Q99D/R42G/S66L/T262R/V114A/V67L/W38E/Y59H/Y61H/Y89S).
T10 construct: endogenous in cells; host or cells: Herluf
The test is described as follows: HLA class II peptide binding assay. The note with it: Table XIXb; DR5w12.

The target in test [12] is T11, DRB1*1302 (DR6w19) (Homo sapiens, UniProt P01903+P01911, A100E/A169T/K41T/L162R/M171V/P40S/Q125H/Q178H/Q39Y/Q99D/R42S/S66N/T262R/V115G/W38E/Y61H).
T11 construct: endogenous in cells; host or cells: H0301
The test is described as follows: HLA class II peptide binding assay. Particulars: Table XIXb; DR6w19.

The target of test [13] is T12, DRB1*1501 (DR2w2β1) (Homo sapiens, UniProt P01903+P01911).
T12 construct: expressed in transfected cells; host or cells: L466.1 (fibroblasts)
The test is described as follows: HLA class II peptide binding assay. The note with it: Table XIXb; DR2w2β1.

Test [14] has as its target T13, DRB4*0101 (DRw53) (Homo sapiens, UniProt P01903+P13762, G164S).
T13 construct: expressed in transfected cells; host or cells: L257.6 (fibroblasts)
The test is described as follows: HLA class II peptide binding assay (pH 5.0). Particulars: Table XIXb; DRw53.

In test [15] the target is T14, DRB5*0101 (DR2w2β2) (Homo sapiens, UniProt P01903+Q30154).
T14 construct: expressed in transfected cells; host or cells: L416.3 (fibroblasts) or GM3107
The class given is binding.

Test [16] has as its target HLA-A*0101 (Homo sapiens, UniProt P04439, A114D/A174V/A182V/D101N/D185E/E176A/E190D/L180R/Q94H/R68K/S129P/T187R/V100A/V91M/W191G). The class given is binding.
Test [17] deals with HLA-A*2402 (Homo sapiens, UniProt P04439, D101N/D140Y/D185E/E176V/E190D/F33S/G103R/G107R/I119L/I121M/I306V/K335N/L105A/L180Q/L300P/N151K/N90K/Q86E/Q94H/R106L/R138H/R89G/T104I/T345S/V100E/W191G/Y123F). The test is described as follows: HLA class I peptide binding assay.

T4 sequence (P01903 26-254 partner, other chains not shown): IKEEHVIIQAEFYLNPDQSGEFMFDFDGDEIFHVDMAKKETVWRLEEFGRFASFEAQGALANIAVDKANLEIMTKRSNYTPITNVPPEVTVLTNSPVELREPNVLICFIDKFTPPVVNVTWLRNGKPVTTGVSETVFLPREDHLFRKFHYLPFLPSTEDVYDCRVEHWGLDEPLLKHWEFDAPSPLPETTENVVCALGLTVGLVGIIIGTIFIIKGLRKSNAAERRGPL
T2 sequence (P01903 26-254 partner, other chains not shown): as above
T11 sequence (P01903 26-254, other chains not shown): as the sequence (P01903 26-254 partner, other chains not shown) above
T9 sequence (P01903 26-254, other chains not shown): as the sequence (P01903 26-254 partner, other chains not shown) above

As to DPNRNVDBIA (EQPQGDDNNL), the “B*0702 (binding information)” value in test [1] is on record as 0.0002.
In the case of FMKAVCVEV, in [2], the “A*0201 (binding information)” value is on record as 0.0290. In test [3], this sequence displayed a DR1 binding data of 0.0072. The sequence also showed a DR3 binding data in [4] of -0.0008. Besides, the DR4w4 binding data in [5] was -0.0006. Moreover, the DR4w15 binding data in test [6] is given as 0.0086. This sequence also had a DR7 binding data in [7] of 0.0019. For the same sequence, in test [8], the DR8w2 binding data is reported as -0.0003. In test [9], this sequence had a DR9 binding data of 0.0820. In addition, the DR5w11 binding data in [10] is on record as -0.0004. In test [11], this sequence had a DR5w12 binding data of 0.0038. This sequence also gave a DR6w19 binding data in test [12] of 0.0003. The DR2w2β1 binding data in test [13] was 0.0003. The sequence also yielded a DRw53 binding data in test [14] of 0.0700. This sequence also came in with a DR2w2β2 binding data in test [15] of 0.0430.
With FQDEENIGIY, in test [16], the “A*0101 (binding information)” value is 1.1000.
In test [17] (HLA class I binding value as printed in column headed A*201 of Table X, unit not given), FYFILVNLL came in with an HLA-A24 binding value of 7.5000. In addition, the “A*2401 (binding information, Malaria A24 motif peptides)” value in test [17] (HLA-A*2401 binding value as printed, unit not given) came out at 7.5000. Also, the DR1 binding data in [3] amounted to 0.0029. The sequence further returned a DR3 binding data in [4] of -0.0008. For the same sequence, the DR4w4 binding data in test [5] was 0.0210. Moreover, the DR4w15 binding data in [6] was -0.0009. In addition, the DR7 binding data in test [7] is recorded as 0.0020. For the same sequence, in test [8], the DR8w2 binding data is 0.0010. The sequence also displayed a DR9 binding data in test [9] of -0.0003. For the same sequence, in test [10], the DR5w11 binding data is listed as 0.0011. This sequence also came in with a DR5w12 binding data in [11] of 0.0006. The DR6w19 binding data in test [12] was 0.0003. This sequence yielded a DR2w2β1 binding data in test [13] of 0.0040. Moreover, in test [15], the DR2w2β2 binding data is listed as 0.0044.
On to GPFMKAVCV, for which the “B*0702 (binding information)” value in test [1] is 0.0023.
In the case of IPEDSEKEV, in test [1], the “B*0702 (binding information)” value was found to be 0.0001. In test [4] (DR3a motif peptides, unit not given, exemplary 15-mer containing the core sequence), this sequence yielded a DR3 binding information of -0.0130.
Turning to KYLVIVFLI, in [17], the “A*201 (binding information)” value is listed as 4.6000 and the “A*2401 (binding information, Malaria A24 motif peptides)” value is 4.6000.
With LIFFDLFLV, the “A*0201 (binding information)” value in [2] was 0.0890. The sequence also had a DR1 binding data in [3] of 0.0006. In test [4], the DR3 binding data is on record as -0.0008. Also, the DR4w4 binding data in test [5] is 0.0130. This sequence also registered a DR4w15 binding data in [6] of -0.0009. Moreover, the DR7 binding data in test [7] was 0.0028. The same sequence displayed a DR8w2 binding data in test [8] of 0.0007. In test [9], this sequence had a DR9 binding data of -0.0003. The sequence also displayed a DR5w11 binding data in test [10] of 0.0019. In addition, the DR5w12 binding data in test [11] turned out to be 0.0016. In addition, the DR6w19 binding data in [12] is reported as 0.0006. For the same sequence, in [13], the DR2w2β1 binding data worked out at 0.0048. Besides, the DR2w2β2 binding data in test [15] was 0.0019.
